Assay results: the supplement of paper PMC7877785
± gives the uncertainty stated by the source.

Assay: self-splicing fitness, log relative to wild type (ln ratio); higher = more splicing; Tetrahymena group I intron in knt gene, E. coli kanamycin selection, DiMSum; sequences stand for … in CUCUCU…GGAGGGAAAAGUUAUCAGGCAUGCACCUGGUAGCUAGUCUUUAAACCAAUAGAUUGCAUCGGUUUAAAAGGCAAGACCGUCAAAUUGCGGGAAAGGGGUCAACAGCCGUUCAGUACCAAGUCUCAGGGGAAACUUUGAGAUGGCCUUGCAAAGGGUAUGGUAAUAAGCUGACGGACAUGGUCCUAACCACGCAGCCAAGUCCUAAGUCAACAGAUCUUCUGUUGAUAUGGAUGCAGUUCACAGACUAAAUGUCGGUCGGGGAAGAUGUAUUCUUCUCAUAAGAUAUAGUCGGACCUCUCCUUAAUGGGAGCUAGCGGAUGAAGUGAUGCAACACUGGAGCCGCUGGGAACUAAUUUGUAUGCGAAAGUAUAUUGAUUAGUUUUGGAGUACUCGUGGUCG
Procedure, shortened: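 Library with all eight P1ex-region intron nucleotides randomised, intron inside the knt kanamycin-resistance gene on pET-22b(+), in E. coli BL21(DE3). Cells grew overnight at 37°C or 30°C on LB agar with or without 25 μg/mL kanamycin (plus 100 μg/mL carbenicillin, 50 μM IPTG, 0.2% rhamnose), in six replicate transformations. Pooled colonies were amplicon-sequenced on Illumina HiSeq 2500. DiMSum fitness is the error-weighted combination of wild-type-normalised replicate fold changes, kanamycin versus none.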

| Sequence | self-splicing fitness (ln) (30 °C) | self-splicing fitness (ln) (37 °C) |
| --- | --- | --- |
| CCCGAGCAAUAUUACGUGAA | -3.43 ± 0.37 | -1.87 ± 0.34 |
| CCCGAGCAAUAUUACGUGAU | -4.13 ± 0.28 | -2.22 ± 0.19 |
| CCCGAGCAAUAUUACGUUGA | -4.57 ± 0.32 | -2.78 ± 0.2 |
| CCCGAGCAAUAUUACGUUUU | -4.01 ± 0.33 | -2.01 ± 0.23 |
| CCCUAGCAAUAUUACGAAAG | -3.5 ± 0.26 | – |
| CCCUAGCAAUAUUACGAAUC | -3.92 ± 0.22 | -2.61 ± 0.18 |
| CCCUAGCAAUAUUACGACAC | – | -2.32 ± 0.28 |
| CCCUAGCAAUAUUACGAGCC | -3.5 ± 0.29 | – |
| CCCUAGCAAUAUUACGAGGU | -3.87 ± 0.16 | -0.753 ± 0.1 |
| CCCUAGCAAUAUUACGAUUA | -1.88 ± 0.44 | -1.33 ± 0.34 |
| CCCUAGCAAUAUUACGCAGG | -3.06 ± 0.22 | -3.3 ± 0.3 |
| CCCUAGCAAUAUUACGCAGU | -4.87 ± 0.36 | -2.2 ± 0.22 |
| CCCUAGCAAUAUUACGCAUU | -3.74 ± 0.28 | -2.82 ± 0.43 |
| CCCUAGCAAUAUUACGCGAA | -1.83 ± 0.2 | -2.2 ± 0.23 |
| CCCUAGCAAUAUUACGCGCA | -2.49 ± 0.45 | -1.72 ± 0.32 |
| CCCUAGCAAUAUUACGGAGA | -4.85 ± 0.46 | -2.68 ± 0.2 |
| CCCUAGCAAUAUUACGGAUC | -4.33 ± 0.39 | -1.71 ± 0.25 |
| CCCUAGCAAUAUUACGGGGU | -2.49 ± 0.092 | -2.91 ± 0.12 |
| CCCUAGCAAUAUUACGGUCC | -3.45 ± 0.22 | -1.51 ± 0.28 |
| CCCUAGCAAUAUUACGUCGA | -3.58 ± 0.21 | -2.51 ± 0.19 |
| CCCUAGCAAUAUUACGUCUU | -2.95 ± 0.13 | -2.54 ± 0.25 |
| CCCUAGCAAUAUUACGUGAA | -2.8 ± 0.16 | -2.62 ± 0.2 |
| CCCUAGCAAUAUUACGUGGC | -3.35 ± 0.18 | -2.68 ± 0.16 |
| CCCUAGCAAUAUUACGUGUU | -4.27 ± 0.18 | -3.37 ± 0.17 |
| CCCUAGCAAUAUUACGUUAC | -4.52 ± 0.29 | -2.53 ± 0.27 |

| Sequence | self-splicing fitness (ln) (30 °C) | self-splicing fitness (ln) (37 °C) |
| --- | --- | --- |
| CCCUAGCAAUAUUACGUUAG | -3.73 ± 0.22 | -2.36 ± 0.18 |
| CCCUAGCAAUAUUACGUUGC | -3.75 ± 0.29 | -1.82 ± 0.18 |
| CCGAAGCAAUAUUACGAACU | -3.08 ± 0.29 | -2.17 ± 0.46 |
| CCGAAGCAAUAUUACGAAUU | -3.28 ± 0.4 | -2.87 ± 0.28 |
| CCGAAGCAAUAUUACGACAA | -3.59 ± 0.4 | -2.52 ± 0.29 |
| CCGAAGCAAUAUUACGACUC | -3.36 ± 0.32 | – |
| CCGAAGCAAUAUUACGAGUU | -2.77 ± 0.1 | -2.96 ± 0.17 |
| CCGAAGCAAUAUUACGAUCG | -0.383 ± 0.065 | -0.283 ± 0.076 |
| CCGAAGCAAUAUUACGAUGG | -3.47 ± 0.19 | -3.7 ± 0.2 |
| CCGAAGCAAUAUUACGCACC | -2.46 ± 0.19 | -2.25 ± 0.5 |
| CCGAAGCAAUAUUACGCACG | -1.19 ± 0.074 | -0.509 ± 0.092 |
| CCGAAGCAAUAUUACGCGCU | – | -2.26 ± 0.42 |
| CCGAAGCAAUAUUACGCGGC | -3.55 ± 0.28 | -2.27 ± 0.3 |
| CCGAAGCAAUAUUACGCUCC | -2.86 ± 0.44 | – |
| CCGAAGCAAUAUUACGCUUC | -3.15 ± 0.27 | -3.2 ± 0.34 |
| CCGAAGCAAUAUUACGGAGU | -1.88 ± 0.16 | -2.98 ± 0.25 |
| CCGAAGCAAUAUUACGGGAU | -3.69 ± 0.26 | -2.47 ± 0.22 |
| CCGAAGCAAUAUUACGGGCG | -0.886 ± 0.066 | -0.235 ± 0.074 |
| CCGAAGCAAUAUUACGGUAG | -2.87 ± 0.11 | -1.3 ± 0.095 |
| CCGAAGCAAUAUUACGUAAU | -3.37 ± 0.24 | -2.54 ± 0.18 |
| CCGAAGCAAUAUUACGUACA | -3.19 ± 0.43 | -1.75 ± 0.34 |
| CCGAAGCAAUAUUACGUCCG | -0.46 ± 0.11 | -0.429 ± 0.095 |
| CCGAAGCAAUAUUACGUCGU | -1.94 ± 0.074 | -0.687 ± 0.077 |
| CCGCAGCAAUAUUACGCACA | -2.51 ± 0.19 | -1.48 ± 0.17 |
| CCGCAGCAAUAUUACGCAGC | -3.86 ± 0.28 | -1.62 ± 0.19 |
